Changes are numbered by the printed parent chain.
What was measured:
Trop2 [1] = molecular target: T1, Trop2 (UniProt P09758 27-323, limits assumed); assay: flow cytometry on A431 cells, APC anti-HA detection
T1 construct: whole, on cells; also called TACSTD2; Trop2 on A431 cells
T1 sequence (looked up): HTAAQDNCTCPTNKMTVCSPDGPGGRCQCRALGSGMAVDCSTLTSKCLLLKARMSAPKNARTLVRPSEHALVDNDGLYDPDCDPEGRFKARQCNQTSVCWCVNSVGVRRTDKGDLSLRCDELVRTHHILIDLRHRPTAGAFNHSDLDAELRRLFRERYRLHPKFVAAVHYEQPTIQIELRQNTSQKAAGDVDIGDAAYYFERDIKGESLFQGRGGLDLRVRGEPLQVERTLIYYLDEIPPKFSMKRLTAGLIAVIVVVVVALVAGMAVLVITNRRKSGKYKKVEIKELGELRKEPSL

Trop2 [2] = molecular target: T1, Trop2; assay: flow cytometry on BxPC3 cells, APC anti-HA detection
serum albumin = serum albumin (UniProt P02768); assay: relative binding activity against HuNb3-11; method not described
Sequence of serum albumin (P02768 25-609 limits assumed): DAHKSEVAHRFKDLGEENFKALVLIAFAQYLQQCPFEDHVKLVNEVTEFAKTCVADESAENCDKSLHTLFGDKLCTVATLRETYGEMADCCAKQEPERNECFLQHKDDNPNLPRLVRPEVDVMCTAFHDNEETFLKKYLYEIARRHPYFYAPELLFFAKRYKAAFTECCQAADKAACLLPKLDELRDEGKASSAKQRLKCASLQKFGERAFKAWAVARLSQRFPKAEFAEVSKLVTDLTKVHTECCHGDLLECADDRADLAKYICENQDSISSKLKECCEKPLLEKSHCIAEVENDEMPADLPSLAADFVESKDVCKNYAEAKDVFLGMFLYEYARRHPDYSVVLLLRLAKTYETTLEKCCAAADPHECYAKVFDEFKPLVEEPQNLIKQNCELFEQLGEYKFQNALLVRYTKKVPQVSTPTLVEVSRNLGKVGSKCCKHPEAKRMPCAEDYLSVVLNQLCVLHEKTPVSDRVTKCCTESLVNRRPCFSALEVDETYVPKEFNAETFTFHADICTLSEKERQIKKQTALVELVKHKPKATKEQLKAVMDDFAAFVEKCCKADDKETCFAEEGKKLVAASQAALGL

Trop2 [3] = molecular target: T1, Trop2; assay: flow cytometry on A431 and BxPC3 cells, human albumin added during incubation, goat anti-VHH and Alexa Fluor488 donkey anti-goat detection
[4] = system: BxPC3 pancreatic cancer cells; assay: Anti-tumor activity in BxPC3 tumor-bearing mice; type: in vivo; conditions: NCG mice
Experimental: NCG mice were inoculated with BxPC3 pancreatic cancer cells for tumorigenesis. When the tumors grew to about 80mm^3, they were divided into groups, with 6 mice in each group. Three dose groups were set up to be intraperitoneally injected with HuNb1-Alb Nb1-MMAE at 0.2mg/kg, 1mg/kg and 5mg/kg, three times a week, respectively. The negative control group was intraperitoneally injected with PBS. The positive control group was intraperitoneally injected with 150mg/kg Gemcitabine, three times a week.

BxPC3 cells [5] = assay: Binding activity of long-acting Trop2 antibody conjugated drug to BxPC3 cells by flow cytometry
Experimental: (§1) Flow cytometry was used to detect the binding activity of these candidate single domain antibodies to Trop2 high expression cell line A431. After the cultured A431 cells were digested with trypsin and neutralized in complete medium, the cells were washed once with PBS, collected and counted, and the cells were added to a 96-well V-bottom plate, 2E5 cells/well. Diluted candidate single domain antibodies and control antibodies BMK1, BMK2 and BMK3 (control antibody sequences are all referred to patent CN111518212B, where BMK1 sequence is the amino acid sequence as set forth in SEQ ID NO: 78, BMK2 sequence is the amino acid sequence as set forth in SEQ ID NO: 65, and BMK3 sequence is the amino acid sequence as set forth in SEQ ID NO: 68) were added to the plate respectively and incubated at 4°C for 40min. After centrifugation, cells were washed with PBS twice, and APC anti-HA antibody was added to incubate at 4°C for 40min. […] APC signal of each sample was detected by flow cytometry.
(§2) The long-acting Trop2 antibody conjugated drug HuNb1-Alb Nb1-MMAE was incubated with A431 and BxPC3 cells, and the binding activity of the antibody conjugated drug to the cells was detected by flow cytometry. […] After centrifugation, the cells were washed and the supernatant was removed, and the cells were resuspended in PBS and then the Alexa Fluor488 signal of each sample was detected by flow cytometry.

BxPC3 cells [6] = assay: Cell killing activity on BxPC3 cells by Cell Counting Kit-8 (CCK8); type: cell-based; conditions: pre-incubated with human serum albumin, 96 hours culture, CCK8 OD450 (FIG.8)
Experimental: (§3) The long-acting Trop2 single domain antibody conjugated drug HuNb1-Alb […]-MMAE was gradiently diluted in cell medium and incubated with human serum albumin for 20 minutes, then co-incubated with A431 cells and BxPC3 cells, respectively. Cell Counting Kit-8 was added after 96 hours of culture at 37°C in 5% CO2 incubator, and the cells were incubated in the incubator for 2.5 hours. After reading the data (OD450) in the microplate reader, IC50 was calculated.

A431 cells [7] = assay: Binding activity of long-acting Trop2 antibody conjugated drug to A431 cells by flow cytometry
Experimental: as §1, §2

A431 cells [8] = assay: Cell killing activity on A431 cells by Cell Counting Kit-8 (CCK8); type: cell-based; conditions: pre-incubated with human serum albumin, 96 hours culture, CCK8 OD450 (FIG.7)
Experimental: as §3

B1: Trop2 single domain antibody Nb1 (VHH)
VHH: QVQLQESGGGSVQAGGSLRLSCAASGFTFSRACMGWFRQASGKEREGVAQVYTGGGSTSYADSVKGRFTISQDNAKNTLYLQMNSLKPEDTAVYYCAVGQPYGACYYSDLAPADFSYWGQGTQVTVSS
notes: Camel-derived VHH expressed and purified from E. coli (phage vector pMECS); detected through an HA tag; also called Trop2 Nb1; candidate antibody Nb1; not shown: HA tag (and any other vector-derived tag from pMECS) used for APC anti-HA detection
binding result (Trop2 [1]): binds

B2: humanized Trop2 single domain antibody HuNb1 (VHH)
VHH: B1 VHH with Q1E, Q5L, S11L, A14P, E44G, R45L, Q123L
notes: Humanized form of Nb1; also called Trop2 HuNb1; not shown: HA tag used for APC anti-HA detection
binding result (Trop2 [2]): binds

B3: humanized Trop2 single domain antibody HuNb2 (VHH)
VHH: EVQLLESGGGLVQPGGSLRLSCVDSGSTYSRRYMGWFRRAPGKGLEGVSVISPYGDSTYYADSVKDRFTISRDNAKNTVYLQMNSLKPEDTAMYYCAASWPYQTASLDAMDFTDWGQGTLVTVSS
notes: also called Trop2 HuNb2; not shown: HA tag used for APC anti-HA detection
binding result (Trop2 [1]): binds

B4: anti-serum albumin single domain antibody Alb Nb1 (VHH)
VHH: EVQLQESGGGLVEPGGSLRLSCVASGFTFQHYAMSWVRQAPGKGLEWVSSISLVGGGTSYADSVKGRFTMSRDNAKNTLYLQLNSLKSEDTAMYYCVRGWHPDVPRPLGQGTLVTVSS
Relative binding activity EC50 (serum albumin): 92%

B5: anti-serum albumin single domain antibody Alb Nb4 (VHH)
VHH: B4 VHH with L53T
Relative binding activity EC50 (serum albumin): 71%

B6: anti-serum albumin single domain antibody Alb Nb2 (VHH)
VHH: B4 VHH with L53V
Relative binding activity EC50 (serum albumin): 95%

B7: anti-serum albumin single domain antibody Alb Nb3 (VHH)
VHH: B4 VHH with L53I
Relative binding activity EC50 (serum albumin): 80%

B8: long-acting Trop2 antibody conjugated drug HuNb1-Alb Nb1-MMAE (bispecific antibody)
chain: EVQLLESGGGLVQPGGSLRLSCAASGFTFSRACMGWFRQASGKGLEGVAQVYTGGGSTSYADSVKGRFTISQDNAKNTLYLQMNSLKPEDTAVYYCAVGQPYGACYYSDLAPADFSYWGQGTLVTVSSGGGGSGGGGSGGGGSGGGGSEVQLQESGGGLVEPGGSLRLSCVASGFTFQHYAMSWVRQAPGKGLEWVSSISLVGGGTSYADSVKGRFTMSRDNAKNTLYLQLNSLKSEDTAMYYCVRGWHPDVPRPLGQGTLVTVSSGGC
modifications: vc-PAB-MMAE (Monomethylauristatin E) coupled to the free cysteine (C) at the C-terminus
notes: also called HuNb1-Alb Nb1-GGC conjugated with vc-PAB-MMAE
binding result (Trop2 [3]): binds

B9: HuNb1-Alb Nb1-MMAE: long-acting Trop2 antibody conjugated drug: HuNb1-Alb Nb1-GGC coupled with vc-PAB-MMAE (Monomethylauristatin E) (conjugate)
chain: B8 chain
tumor of high-dose group ([4]; high-dose group (5mg/kg intraperitoneal, three times a week), after treatment for 20 days): completely fades | treatment effect compared with Gemcitabine ([4]; high-dose group versus 150mg/kg Gemcitabine intraperitoneal, three times a week): significantly better than the treatment effect of Gemcitabine | BXPC3 tumor killing activity ([4]; intraperitoneal 0.2mg/kg, 1mg/kg and 5mg/kg, three times a week (FIG.9)): significant BXPC3 tumor killing activity | binding activity to BxPC3 cells (BxPC3 cells [5]; flow cytometry, Alexa Fluor488 signal (FIG.6)): good binding activity | effect of the presence of HSA protein on binding to BxPC3 cells (BxPC3 cells [5]; human blood albumin added during incubation (FIG.6)): not affected by the presence of HSA protein | killing effect on BxPC3 cells (BxPC3 cells [6]): significant killing effect | binding activity to A431 cells (A431 cells [7]; flow cytometry, Alexa Fluor488 signal (FIG.5)): good binding activity | effect of the presence of HSA protein on binding to A431 cells (A431 cells [7]; human blood albumin added during incubation (FIG.5)): not affected by the presence of HSA protein | killing effect on A431 cells (A431 cells [8]): significant killing effect

From patent EP4755919A1, “ANTI-TROP2 ANTIBODY, CONJUGATE COMPRISING SAID ANTIBODY, AND USE THEREOF” (Hanano Technologies Limited, priority 2023, dated 2024)
